Data: a protein production outcome set (Wang et al. 2014)

Assay: label from the status in PepcDB records

| Sequence | protein production |
| --- | --- |
| MDEISTGMLLVILAVLLFLSAYFSGSETGMMSINRYRLRHLVQNNHPGAKRVQYLLDRPDRLIGLILIGNNLVNIGASAIATILCLRWFGDAGIVIATFGLTLIILIFSEVTPKTIAALHPERISFPSSLILMPLLKVMYPIVIGMNFITNSFMRLLGVNPKQSQMADALSSDELRTVVNEAGNLIPTSHQEMLVSILDLEKVTVEDVMVPRNEIVGIDISDDWKSIVKQLSNGQHTRVLLYRNEIDDAIGFLHARDIMRLMSKNQFTADKSILVRAARDSYFIPEGTPLNVQLLKFQRRKERIGLVVDEYGDIQGLVTLEDILEEIVGDFTTSMAPAPSESVTLETDGSFLVDGSANLRELNKEMNWDFPTDGPKTLSGLIIEQFGDIPDARLSLRLGGYPVELVEIGDTMIKQIRVFPELYQKPDNQTND | failed |
| MDEQSVESIAEVFRCFICMEKLRDARLCPHCSKLCCFSCIRRWLTEQRAQCPHCRAPLQLRELVNCRWAEEVTQQLDTLQLCSLTKHEENEKDKCENHHEKLSVFCWTCKKCICHQCALWGGMHGGHTFKPL | failed |
| MDERRFFRDVCAEWMEQYRLTVRESTLEKTQRIINIHVLPAFGDMVINNITPNVCQKVVNKWFLEAKSYKKWLNYASMIFDYALRAEYVGRNPCTLVTMPRVQEQAGEKLEHHHHHH | failed |
| MDEVNVIARITGVSRVRTFERDGREGRFISLDIMDATGSTTYTLWNNDVNLVEELGLKEGDAVKILWAQPRRRDDKVTLTHTSLTRVVPGLEHHHHHH | failed |
| MDFAHLDQQLRDSVLDLKLSNEERDELRQLGSELGQDQVRYMRNRAFDLVRELALADSVNVLPALKWLEQVIKTLDANSAPVRDMASAHFSPGEDCRRKIRDLCRQARISVDICVFTISDDQLSDEIRACHQRGVAVRVISDSEKQFDVGSDIAALREAGVPVRIDDTPFHMHHKFAVFDGRTLLNGSFNWTRSATTGNEENLLVIDHPQLVASYLKEFNELWSRYAPR | failed |
| MDFESNGAMMEYCKSTGRTYCAFSIQQSSKLLGTVVLELFTDIAPATCANFIKYIKDGYQGTPLHRIVPNGWVQGGDIVDGSGKGDPGFVLPDETYSVKHDAPGVLGMATGGQPHTANTQFYISLSPLPFLDGKRVAFGRVLNKQSLENLLALQTLPTFQNERPVPDVVIASCHVIYNPNS | failed |
| MDGAQPKTNFFERLIARLAREPDSAEDVLNLLRQAHEQEVFDADTLTRLEKVLDFAELEVRDAMITRSRMNVLKENDSIERITAYVIDTAHSRFPVIGEDKDEVLGILHAKDLLKYMFNPEQFHLKSVLRPAVFVPEGKSLTALLKEFREQRNHMAIVIDEYGGTSGLVTFEDIIEQIVGDIEDEFDEDESADNIHSVSAERWRIHAATEIEDINAFFGTEYGSEEADTIGGLVIQELGHLPVRGEKVLIGGLQFTVARADNRRLHTLMATRVK | failed |
| MDGASRENPGLAAAGGAVRDGNENWVGVFALNIEICSAPLAELWGLYYGLHIVWEQGITRLELEVDSKIVVGFLQTGIPDSHPLSFLLRLCYGFISRDWLVRISHVYREVNRLADGLANYAFSLPLGLYVFNSVPDSIASFVLEDARMLEEYRMKFWLLEDLGLRHCGNVKANGFHRVSAYPREKSHGRHRLYVLHY | failed |
| MDGDGSSFEQFIMPPSALDRLASLHIEYPMLFQLSNVSVEKTSHCGVLEFTADEGLVYLPYWMMQNMSLEEGDVMQVKNISLVKGTYIKLQPHTQDFLDISNPKAILETTLRSYSCLTTGDTIMVPYNNKQYYINVVEAKPSSAVSIIETDCEVDFAPPLDYKEPEKPQKLTPSNKRPLQVKEEEEPASKVPKFTPFTGSGKRLDGKAQTQTEPEDTKQQEKPTENGKDDEKLSVTTPRQISGKLVFGSNSKSAAKETAKVDDPKNIVQESSTKSDEAKFKVFTGKKYSLNG | failed |
| MDGRMDATTRMTLSVGALMFRMIWFPAPHWTHAARMTASTFRRYGFGLLSLVLLVLPSRLAAQDYEVPTVTDTYALQNARVVQAPGQVLESATVVVRDGVIDAVGPDAEVPYDARTIEADSLVVYAGFIDGLSHAGVEMPEGEDTDVEDPGNPPPDAAGIQPDRSVRPFLSPDESALQSLRKAGFTLGHVAPEGQMLPGASAHVFYGGETANDMVLEAGPTLFAQLQTADGYVYPATGMAVIAQMRQLYREAERRQQLEAAYERDPTGRPQPPQDPQHSALFSVLDGEQPLAFYADEALSLHRILALHQELDFPLVLAGLGESHELVDALQAVDAPLFLTLDLPEEPTRSTGQDTTTADTTSTPSRYYNPDLQVPSHETVAEEEENLELRHAMERQDYLETAATLHDAGLEFGFTTREADPGDVRGNLRTMIDQGLPEQTALAALTTRPAAQLGLDDRLGTVEAGKIANLVVTDGSYFAEDTKVTHVFVDGRLYDYSADGSDEGEVSGDVSAVLGTWSYTLDTPQGELSGEVTIEGDQSGLDGTFVGPQGDEQPLQSVSFDGTTLSFTVDSPQGGSVSVSVTVEGDTFDGSASTSGGSFPISGERTSGPNATQK | failed |
| MDGTEIAVSPRSLHSELMCPICLDMLKNTMTTKECLHRFCSDCIVTALRSGNKECPTCRKKLVSKRSLRPDPNFDALISKIYPSREEYEAHQDRVLIRLSRLHNQQALSSSIEEGLRMQAMHRAQRVRRPIPGSDQTTTMSGGEGEPGEGEGDGEDVSSDSAPDSAPGPAPKRPRGGGAGGSSVGTGGGGTGGVGGGAGSEDSGDRGGTLGGGTLGPPSPPGAPSPPEPGGEIELVFRPHPLLVEKGEYCQTRYVKTTGNATVDHLSKYLALRIALERRQQQEAGEPGGPGGGASDTGGPDGCGGEGGGAGGGDGPEEPALPSLEGVSEKQYTIYIAPGGGAFTTLNGSLTLELVNEKFWKVSRPLELCYAPTKDPK | failed |
| MDGTVTPSPITTAMPPVSALDAGTPTLPPEAPLAMPEQNLREGSLQVRHQRTSPPGIGVRRFYLIGGTFATTAIAVWVMLSVLWPDGISVLEGCLLGLFVLLFAWIAMSFASAVAGFVTVVARAGRKLGIDPEQPLPTLRSRTALLMPTYNEDPRRLLAGLQAIYESVAETGQLEHFDFFVLSDTTREHIGRAEELVYNALCDRVGGHGRIFYRRRADNAARKAGNVADWVRRFGGSYPQMLILDADSVMTGDTIVRLVAGMENNPDVGLIQTLPAVVNGQTLFARMQQFGGRVYGPIIAFGVAWWHGAESNYWGHNAIIRTQAFADHAGLPSLRGRKPFGGHVLSHDFVEAALMRRGGWAMHMVPYLQGSYEEGPPTLTDLLIRDRRWCQGNLQHAKVVGAKGLHWISRMHMLIGIGHYFTAPMWGLLMLIGIGIPLAGGDIDLAGDLPFSPARYWHGSSQGNAIWIFVCTMFVLLAPKLLGYIALLLNPRELRACGGAFRAAVSILLETVLAALMAPVVMYLQSRGVFEVLAGKDSGWDAQVRDDGKLSWPALLRSYGGLTVFGLFMGAVAYAVSPALAAWMGPVIVGMALSIPVVALTSLRRTGMALRRAGIFCIPEELDPPKVLVRASELRRAAALEPSLI | failed |
| MDGVFRLLLGRFIQRGTIIFTTAGGTTFTCGDGTGEQVHARLTSPLAQRRLLLDPELALGEIYMDGGLVMQQGSIADLLAVAMGQPDWTPRWAKLHGLVRYWIRTLHQFNPRSRSRNNVAHHYDLDGRLYALFLDSDKQYSCAYFETPDANLDDAQLAKKRHVAAKLLTTPGQRVLDIGSGWGGLGLYLAETCGADVTGVTLSREQLQAANTRAAERGLADRARFLLQDYRDVPGPFDRIVSVGMFEHVGVDHYDTYFRRCAELLKDDGVMLLHSIGRSEGPGFTNPWIAKYIFPGGYLPALSEVLPAIERAGLLVCDIEILRLHYAETLKAWRERFLAHREEAERLYDARFVRMWEFYLAASEMSFRKQNTMVFQIQLTRRQGVVPITRDYIAAEEKRLRGMEKSRTPRLQLAGE | failed |
| MDHVHKSTTTDEDERNSGRAIDRHNPIIKDGRRSFADDFIKLPTSAEDGEMSNKKLEIYKGRRSITGRRSTGGGGGGGAAALLKLITNDIGLARKSFSCVARPACDLIKTPVGSTRYLLGSDPDSITGSVDQDPAKTVEAEAPAGEDKTLTEKKTTCGDTDQVSCFVVSIMSGINVNKW | failed |
| MDHYLRWRKRQKLLADFGEFALSNDNLADILTEACRLVGNALGTQRANVLEIEPSKRSLFVRAGVGLDDGIVGKLRLPMREIASERFSPDGSPLDIIHDVHTEPQYDLAAFMEVAGVVALVNVPILLPGRTLYGLLQVESSEPREFSQDDVEFLRTYSTILGPVIDRLNKVRALRDAEERFRLIVEAAR | not failed |
| MDIAGYLSFFFASFTTLFIIIDPPGNLPIFIALTERFSDEYREKISKRATIIAFLILFITMVTGGKILDYFGVSISSLKIAGGILLFISSVDILLGGTRREAYKRRAEESIDVDSIAVFPLALPLYTGPGAITAGIVLYSQAGDVVMKLLVVLSAALVYSIVRLSHIYSAPIIRLLGRSGADIAARILAIFLAAIAVEFVFDGLAEKLVSMDL | failed |
| MDIKRYCPVTDSELPADHVYFKFRSEIEAAEAYLGLAISEGIKVRETREILDIIDTVYNSLSDPESKLNDFQEKRLNFTEEDWYDIKEKANNGNRWSLYMFLARSAVDSAVYWSYRMKETEEFKEIVKEEMISKLLKAGYVILRESLGEVRL | not failed |
| MDIKSETEQYKRKAEIEKHTKEPNKHRDEAVLQNRAGRHRDRAVIDHKSEERERESVQNVTEMSGIERSEGEWSPPVEGITDEELPSHSPMDDLGFALFASWGRKTERQRMGSPDIRIYIFNPIKKIIIMETRIRFGLEWKPSGFGS | failed |
| MDINIGTTHKVFHVLSKIGPAWIVMMADVDVASIITGLQSGAEFGFHMIFVMLILIPPLFIVQNAAGYLGIYSGMGVGEAIRQRYGRRLALLAAIPMASTDILSYIAEYSGIAIGLYMVGVSPYISVPVVFVIHNLIVLMRRYGRIESILMIVSVGLVLFIIVSVALMKPSWHSVILTGLNPIQPYGNHDFDIMIIANLGAIIMPFMIFYQAGASVQKSLLDQDIKISRNETAIGSIVSEVLMVMIVIAGTFIGGYATEPKMLAAALLPFGTYAYYITAAGFVTAGFLALIVISLASSWGIAEALGWKLYSGRRRGMHKAQMKGLTEERSDCDRRKFIYLYMGESIPAAAIALSFSAYLLPLVIDLMIVFVLVLAPVGVLLGLLVSDQKIMNGHRLSKRYMALFWFTLAIIEIAGLYSIITSI | failed |
| MDISLLSTTSDPEQLRALAIAMVQKVMAENAELQNRIRILEEQMKLARQQRFGKKCESLAGMQRSLFEEDVDADIAEISAHLDKLLPQTGDEEKTTTRPVRKPLPSPLPRAEKVIPPAEERCPDCDAPLHFIRDEVSEKLEYIPAQVVVNRYIRPQYSCPCCEKVFSGKMPAHILPKSAVEPSVIAQVVISKYTDHLPLYRQQHIFSRMGVELPVSTMADMVGVAGAALAPLAKLLRHELLTRDVIHADETSLRLLDTRKGGKSCSGWLWAYVSGERVSVNGAPY | failed |
| MDKALTNRVIILSFDCLSALDFPILQKLPHFQSLIKKGTVVEKVEPIYPSVTYPSHSTIVTGNYPNKHGVVSNTLLQPGRESPDWHWYRKSIKGTTLYDEAHKANLTTAALLWPVTGRANIDYNLPEIFPNRPWQNQVLVSLFSGSPLYQLDLNRRFGHIRNGLSQPELDDFVLASAVHTIQTKKPNVMFVHFTDLDTQRHYHGFESKETIAAIHRHDERLGQIIQALKDSDLYEESTIIALGDHSALSENKAIQLNVLFHQKGLISVNSKGNLVDWKVYCQSCDGSAYVYVKDKNDTDTIREVQLLLEELLQHKQNGIEFILHDEDAKECGADGNCLFMLEAREGYYFTENYTGDFIKEITEKDVTPSKKYTFGTHGYSPTKPNYETIFIAAGKGIKSGVTIPYMRLIDEGPTIARLLGLHLGETDGSIVEDLLQL | failed |
| MDKASRFDRMVKEKKNDELGLFEKYEETLAEIRKRIIKYKAKTVVDMGCGTGNLCGELSKEIEALGIDKSLEMLEGAKRKYKHIKFKIGSFSDKPFIGKWAGVVVTTYAFHGLNSEEKKEAIKNMIGYLKDDGRIIIGDYMFKNKAEKEECRNKLLSKKRQDLWEVIDGRYYTDLEELKDYVKSLGFKIISEHIVNFTWIVEIYK | failed |
